Laboratory results reported in patent US20250340591A1, “COMPOSITION FOR PREVENTING OR TREATING INFLAMMATORY BOWEL DISEASE CONTAINING NOVEL COMPOUND” (ANYGEN CO., LTD., priority 2021, published 2025).
Square brackets hold non-standard residues; d marks the D form. Ends that are not written are not given here. * marks the point of attachment. DAMP‑2 = 1,3-bis(2-cyclohexylethyl) substitution on the histidine imidazole ring (1,3-bis(2-cyclohexylethyl)-2,3-dihydro-1H-imidazol-4-yl side chain), C1=C(*)N(CCC2CCCCC2)CN1CCC1CCCCC1; 2‑(4-tert-butyl)phenyl = 2-(4-tert-butylphenyl) substituent on the histidine imidazole (2-(4-(tert-butyl)phenyl)-1H-imidazol-4-yl), CC(C)(C)c1ccc(*)cc1; DAMP‑5 = 3-(2-cyclohexylethyl) substitution on the histidine imidazole ring (3-(2-cyclohexylethyl)-2,3-dihydro-1H-imidazol-4-yl side chain); DAMP‑3 = 1,3-diphenethyl substitution on the histidine imidazole ring (1,3-diphenethyl-2,3-dihydro-1H-imidazol-4-yl side chain); thiophene = 2-(thiophen-2-yl) substituent on the histidine imidazole (2-(thiophen-2-yl)-1H-imidazol-4-yl), c1csc(*)c1; 4‑methoxybenzhydryl = (4-methoxyphenyl)(phenyl)methyl on the His imidazole, COc1ccc(C(c2ccccc2)*)cc1; 1,2‑diphenyl = 1,2-diphenyl substituents on the histidine imidazole (1,2-diphenyl-1H-imidazol-4-yl); 1‑phenyl = 1-phenyl substituent on the histidine imidazole (1-phenyl-1H-imidazol-4-yl), c1ccc(*)cc1; 2‑phenyl = 2-phenyl substituent on the histidine imidazole (2-phenyl-1H-imidazol-4-yl), c1ccc(*)cc1; 4‑hydroxybenzhydryl = (4-hydroxyphenyl)(phenyl)methyl on the His imidazole, Oc1ccc(C(c2ccccc2)*)cc1; Tyr(3,5-(NO2)2) = N[C@@H](Cc1cc([N+](=O)[O-])c(O)c([N+](=O)[O-])c1)C(=O)O; Tyr(3-NO2) = N[C@@H](Cc1ccc(O)c([N+](=O)[O-])c1)C(=O)O; Biotin = O=C1N[C@H]2[C@H](CS[C@H]2CCCCC(=O)*)N1; dPhe(4-CF3) = N[C@H](Cc1ccc(C(F)(F)F)cc1)C(=O)O; 1‑(4-tert-butyl)phenyl = CC(C)(C)c1ccc(*)cc1; Tyr(3-Cl) = N[C@@H](Cc1ccc(O)c(Cl)c1)C(=O)O; Tyr(3-NH2) = Nc1cc(C[C@H](N)C(=O)O)ccc1O; dPhe(4-Cl) = N[C@H](Cc1ccc(Cl)cc1)C(=O)O; dPhe(4-Me) = Cc1ccc(C[C@@H](N)C(=O)O)cc1; Mtt = Cc1ccc(C(c2ccccc2)(c2ccccc2)*)cc1; Trt = c1ccc(C(c2ccccc2)(c2ccccc2)*)cc1; Benzhydryl = c1ccc(C(c2ccccc2)*)cc1; 2‑cyclohexylethyl = C1CCC(CC*)CC1; Tos = Cc1ccc(S(=O)(=O)*)cc1; Octanoyl = CCCCCCCC(=O)*

T1: GPR39 (G protein coupled receptor 39) (UniProt O43194 1-453, limits assumed)
T1 sequence (looked up): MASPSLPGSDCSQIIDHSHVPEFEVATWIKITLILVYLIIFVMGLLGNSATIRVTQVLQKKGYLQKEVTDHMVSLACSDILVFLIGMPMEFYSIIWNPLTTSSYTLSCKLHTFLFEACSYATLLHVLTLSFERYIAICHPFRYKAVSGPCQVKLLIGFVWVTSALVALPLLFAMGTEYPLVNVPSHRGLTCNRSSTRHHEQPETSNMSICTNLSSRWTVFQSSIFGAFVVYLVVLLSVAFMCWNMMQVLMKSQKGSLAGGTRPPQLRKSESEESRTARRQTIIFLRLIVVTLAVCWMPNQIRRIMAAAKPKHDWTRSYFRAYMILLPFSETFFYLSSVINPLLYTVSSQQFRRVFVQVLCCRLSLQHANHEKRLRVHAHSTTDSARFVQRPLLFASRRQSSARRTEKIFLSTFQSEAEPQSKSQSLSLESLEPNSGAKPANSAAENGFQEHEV

B1: HKFY-12 (peptide)
peptide: H(Trt)K(Octanoyl)[dF]Y-OH
modifications: not fully specified; printed as His(trt)-Lys(caprylic)-d-Phe-Tyr
B2: HKFY-7 (peptide)
peptide: H(DAMP‑5)K(Octanoyl)FY
B3: HKFY-75 (peptide)
peptide: H(Tos)K(Octanoyl)[dPhe(4-Me)]Y-OH
B4: HKFY-72 (peptide)
peptide: Biotin-H(Benzhydryl)K(Octanoyl)[dPhe(4-Me)]Y-OH
B5: HKFY-51 (peptide)
peptide: H(Trt)K(Octanoyl)LY-OH
B6: HKFY-64 (peptide)
peptide: H(4‑methoxybenzhydryl)K(Octanoyl)[dPhe(4-Me)]Y-OH
B7: HKFY-65 (peptide)
peptide: H(4‑hydroxybenzhydryl)K(Octanoyl)[dPhe(4-Me)]Y-OH
B8: HKFY-60 (peptide)
peptide: H(2‑(4-tert-butyl)phenyl)K(Octanoyl)[dPhe(4-Me)]Y-OH
B9: HKFY-8 (peptide)
peptide: H(DAMP‑2)K(Octanoyl)FY
B10: HKFY-10 (peptide)
peptide: HK(Octanoyl)FY
modifications: not fully specified (residue 1)
B11: HKFY-62 (peptide)
peptide: [dH](Benzhydryl)K(Octanoyl)[dPhe(4-Me)]Y-OH
B12: HKFY-6 (peptide)
peptide: H(DAMP‑3)K(Octanoyl)FY
B13: HKFY-76 (peptide)
peptide: H(Trt)K(Octanoyl)[dPhe(4-CF3)]Y-OH
B14: HKFY-79 (peptide)
peptide: His(Benzhydryl)-Lys(Octanoyl)-OH
B15: HKFY-57 (peptide)
peptide: H(2‑phenyl)K(Octanoyl)[dPhe(4-Me)]Y-OH
B16: HKFY-1 (peptide)
peptide: H(Trt)K(Octanoyl)FY
B17: HKFY-68 (peptide)
peptide: H(Benzhydryl)K(Octanoyl)[dPhe(4-Me)][Tyr(3-NO2)]-OH
B18: HKFY-11 (peptide)
peptide: H(2‑cyclohexylethyl)K(Octanoyl)FY
B19: HKFY-53 (peptide)
peptide: H(Trt)GSK(Octanoyl)FY-OH
B20: HKFY-66 (peptide)
peptide: H(Benzhydryl)K(Octanoyl)[dPhe(4-Me)]Y-NH2
B21: HKFY-59 (peptide)
peptide: H(1,2‑diphenyl)K(Octanoyl)[dPhe(4-Me)]Y-OH
B22: HKFY-9 (peptide)
peptide: H(2‑phenylethyl)K(Octanoyl)FY-OH
modifications: not fully specified
B23: HKFY-15 (peptide)
peptide: H(Trt)K(Octanoyl)[dPhe(4-Cl)][dY]
B24: HKFY-70 (peptide)
peptide: H(Benzhydryl)K(Octanoyl)[dPhe(4-Me)][Tyr(3-NH2)]-OH
B25: HKFY-63 (peptide)
peptide: H(thiophene)K(Octanoyl)[dPhe(4-Me)]Y-OH
B26: HKFY-67 (peptide)
peptide: H(Benzhydryl)K(Octanoyl)[dPhe(4-Me)][Tyr(3-Cl)]-OH
B27: HKFY-5 (peptide)
peptide: H(Mtt)K(Octanoyl)FY
B28: HKFY-2 (peptide)
peptide: Biotin-H(Trt)K(Octanoyl)FY
B29: HKFY-13 (peptide)
peptide: H(Trt)K(Octanoyl)[dPhe(4-Cl)]Y
B30: HKFY-58 (peptide)
peptide: H(1‑phenyl)K(Octanoyl)[dPhe(4-Me)]Y-OH
B31: HKFY-54 (peptide)
peptide: Lys(Octanoyl)-Phe-Tyr
B32: HKFY-55 (peptide)
peptide: K(Octanoyl)H(Trt)FY
B33: HKFY-50 (peptide)
peptide: H(Trt)K(Octanoyl)FS
B34: HKFY-16 (peptide)
peptide: H(Trt)[dK](Octanoyl)[dPhe(4-Cl)]Y
B35: HKFY-61 (peptide)
peptide: H(1‑(4-tert-butyl)phenyl)K(Octanoyl)[dPhe(4-Me)]Y-OH
B36: HKFY-52 (peptide)
peptide: H(Trt)FYDQQARF
modifications: also: C-terminal Phe amide in IUPAC name, not in sequence formula
B37: HKFY-56 (peptide)
peptide: H(Trt)K(caproic)FYDQQARF
modifications: also: C-terminal Phe amide in IUPAC name, not in sequence formula
B38: HKFY-14 (peptide)
peptide: [dH](Trt)K(Octanoyl)[dPhe(4-Cl)][dY]
B39: HKFY-69 (peptide)
peptide: H(Benzhydryl)K(Octanoyl)[dPhe(4-Me)][Tyr(3,5-(NO2)2)]

target: T1, GPR39 (G protein coupled receptor 39); experiment: cell-based or functional assay

Binder	EC50; SRE-luciferase reporter	ECmax; SRE-luciferase reporter
B1	0.035 µM	20.7 -fold induction over basal
B2	1.56 µM	16 -fold induction over basal
B3	0.001 µM	15.9 -fold induction over basal
B4	0.011 µM	10.4 -fold induction over basal
B5	0.12 µM	14.4 -fold induction over basal
B6	0.007 µM	16 -fold induction over basal
B7	0.003 µM	18.3 -fold induction over basal
B8	0.19 µM	28.2 -fold induction over basal
B9	33.6 µM	17.3 -fold induction over basal
B10	46.5 µM	14 -fold induction over basal
B11	0.83 µM	28.1 -fold induction over basal
B12	68.4 µM	15 -fold induction over basal
B13	0.007 µM	14.2 -fold induction over basal
B14	0.97 µM	11.2 -fold induction over basal
B15	0.26 µM	8.5 -fold induction over basal
B16	0.15 µM	20.5 -fold induction over basal
B17	0.013 µM	10.8 -fold induction over basal
B18	57.8 µM	22 -fold induction over basal
B19	0.34 µM	8 -fold induction over basal
B20	0.011 µM	20.2 -fold induction over basal

Binder	EC50; SRE-luciferase reporter	ECmax; SRE-luciferase reporter
B21	0.55 µM	6.76 -fold induction over basal
B22	42.7 µM	21 -fold induction over basal
B23	0.098 µM	24.7 -fold induction over basal
B24	0.02 µM	10.1 -fold induction over basal
B25	0.006 µM	13.5 -fold induction over basal
B26	0.043 µM	10.2 -fold induction over basal
B27	1.84 µM	16 -fold induction over basal
B28	0.14 µM	15 -fold induction over basal
B29	0.014 µM	25.7 -fold induction over basal
B30	0.02 µM	9.12 -fold induction over basal
B31	25.9 µM	7.8 -fold induction over basal
B32	2.49 µM	16.8 -fold induction over basal
B33	0.7 µM	16.2 -fold induction over basal
B34	0.24 µM	27.9 -fold induction over basal
B35	0.02 µM	9.88 -fold induction over basal
B36	56.4 µM	15.5 -fold induction over basal
B37	–	14.9 -fold induction over basal
B38	0.02 µM	20.9 -fold induction over basal
B39	0.015 µM	12.2 -fold induction over basal
